In the supplement of paper PMC10126150:
± gives the standard deviation of the averaged measurements.

Test system: ATP
Assay: switch fluorescence ratio, 500 uM ATP over buffer (Cy3 cluster intensity, sum of 5 cycles each) (fold (ratio)); higher = stronger signal-on switching upon ATP binding; sequences stand for … in TCGTCGGCAGCGTCAGATGTGTATAAGAGACAGTTTTTTTTTTTTTTTTTTTTTTTTT…TC
Conditions: aptamer strand: ATP DNA aptamer (quencher-CACCTGGGGGAGTATTGCGGAGGAAGG + anchor), 100 nM annealed; ATP concentration: 500 uM
Method in brief: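 Between each of five buffer/ATP cycles, the flow-cell was stripped with NaOH and re-annealed. Each cycle imaged Cy3-labelled switching-strand clusters, annealed to 100 nM quencher-labelled ATP aptamer on a modified Illumina MiSeq flow-cell, first in selection buffer and then after 15 min with 500 uM ATP at 22 °C. The fluorescence ratio is summed target-cycle over summed buffer-cycle Cy3 intensity per cluster, averaged per switch-domain sequence, with clusters outside 100-1000 RFU excluded.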
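Note: ATP exposure 15 min at 22 °C before imaging.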

TGGGGCTCAG and TGGGGCTTCG are within error of each other in switch fluorescence ratio: 0.986 ± 0.027 for the first, 0.92 ± 0.077 for the second.

TGGGGCTTGA and TGGGGG are within error of each other in switch fluorescence ratio: 0.9684 ± 0.005 for the first, 1 ± 0.033 for the second.

TGGGGGAAAG and TGGGGGAACA are within error of each other in switch fluorescence ratio: 0.993 ± 0.026 for the first, 0.989 ± 0.018 for the second.

TGGGGGAAGG and TGGGGGACCT are within error of each other in switch fluorescence ratio: 1.03 ± 0.061 for the first, 1.09 ± 0.1 for the second.

TGGGGGACTA and TGGGGGATTG are within error of each other in switch fluorescence ratio: 0.967 ± 0.033 for the first, 0.987 ± 0.031 for the second.

Going from TGGGGGCACA to TGGGGGCCTG, the switch fluorescence ratio falls from 1.0343 ± 0.00026 to 0.99 ± 0.033.

TGGGGGCCTT and TGGGGGCGGC are within error of each other in switch fluorescence ratio: 1.02 ± 0.053 for the first, 1.046 ± 0.0061 for the second.

TGGGGGGCCA and TGGGGGGCGG are within error of each other in switch fluorescence ratio: 1 ± 0.027 for the first, 1.02 ± 0.03 for the second.

TGGGGGGGAT and TGGGGGGGGA are within error of each other in switch fluorescence ratio: 0.993 ± 0.026 for the first, 1.02 ± 0.036 for the second.

TGGGGGGGTC and TGGGGGGTCA are within error of each other in switch fluorescence ratio: 0.988 ± 0.048 for the first, 0.993 ± 0.02 for the second.

TGGGGGGTGC and TGGGGGTATA are within error of each other in switch fluorescence ratio: 1.13 ± 0.4 for the first, 1.03 ± 0.06 for the second.

TGGGGGTCAT and TGGGGGTCCC are within error of each other in switch fluorescence ratio: 1.05 ± 0.061 for the first, 0.991 ± 0.017 for the second.

TGGGGGTCTA and TGGGGGTT are within error of each other in switch fluorescence ratio: 0.971 ± 0.031 for the first, 0.997 ± 0.032 for the second.

TGGGGGTTAC and TGGGGGTTCG are within error of each other in switch fluorescence ratio: 1.08 ± 0.13 for the first, 0.99 ± 0.035 for the second.

TGGGGGTTG and TGGGGGTTTG are within error of each other in switch fluorescence ratio: 1 ± 0.032 for the first, 0.993 ± 0.021 for the second.

TGGGGTATAT and TGGGGTGCGG are within error of each other in switch fluorescence ratio: 0.996 ± 0.015 for the first, 0.975 ± 0.026 for the second.

Compared with TGGGGTGCTG, TGGGGTGGGA is lower in switch fluorescence ratio: 1.05 ± 0.016 for the first, 0.991 ± 0.029 for the second.

TGGGGTGGGG and TGGGGTGTCT are within error of each other in switch fluorescence ratio: 1.05 ± 0.09 for the first, 0.993 ± 0.039 for the second.

TGGGGTTACT and TGGGGTTCAT are within error of each other in switch fluorescence ratio: 1.01 ± 0.015 for the first, 0.985 ± 0.025 for the second.

TGGGGTTCGG and TGGGGTTCTA are within error of each other in switch fluorescence ratio: 1 ± 0.079 for the first, 0.992 ± 0.026 for the second.

TGGGGTTGCC and TGGGGTTGGC are within error of each other in switch fluorescence ratio: 0.96 ± 0.026 for the first, 1.17 ± 0.34 for the second.

TGGGTAAACG and TGGGTAAGGA are within error of each other in switch fluorescence ratio: 1.023 ± 0.0035 for the first, 1 ± 0.026 for the second.

TGGGTAATGT and TGGGTAATTT are within error of each other in switch fluorescence ratio: 1.01 ± 0.023 for the first, 1.03 ± 0.055 for the second.

TGGGTACAGC and TGGGTAGGTC are within error of each other in switch fluorescence ratio: 1.02 ± 0.04 for the first, 1.014 ± 0.0014 for the second.

TGGGTAGTAA and TGGGTATCGG are within error of each other in switch fluorescence ratio: 0.993 ± 0.016 for the first, 0.994 ± 0.021 for the second.

TGGGTATCGT and TGGGTATTAC are within error of each other in switch fluorescence ratio: 0.977 ± 0.029 for the first, 1.14 ± 0.26 for the second.

First: TGGGTCAATG
Second: TGGGTCCAAA
The switch fluorescence ratio of the first is lower: 0.9822 ± 0.0078 for the first, 1.006 ± 0.0076 for the second.

TGGGTCGCCG and TGGGTCTAAG are within error of each other in switch fluorescence ratio: 0.964 ± 0.012 for the first, 0.9669 ± 0.0093 for the second.

TGGGTCTAGA and TGGGTCTTGA are within error of each other in switch fluorescence ratio: 0.975 ± 0.023 for the first, 1.001 ± 0.0062 for the second.

TGGGTGAAAG and TGGGTGAGGA are within error of each other in switch fluorescence ratio: 1.02 ± 0.02 for the first, 1.04 ± 0.054 for the second.

TGGGTGATTA and TGGGTGCGTC are within error of each other in switch fluorescence ratio: 0.9846 ± 0.005 for the first, 0.988 ± 0.014 for the second.

TGGGTGGAAG and TGGGTGGATC are within error of each other in switch fluorescence ratio: 1.042 ± 0.01 for the first, 1.02 ± 0.056 for the second.

Going from TGGGTGTATC to TGGGTGTGG, the switch fluorescence ratio rises from 1.004 ± 0.0022 to 1.015 ± 0.0075.

TGGGTGTTGT and TGGGTTATTA are within error of each other in switch fluorescence ratio: 1.01 ± 0.034 for the first, 1 ± 0.018 for the second.

Going from TGGGTTCAGC to TGGGTTCTGT, the switch fluorescence ratio falls from 1 ± 0.011 to 0.974 ± 0.0099.

TGGGTTGCGT and TGGGTTGGAG are within error of each other in switch fluorescence ratio: 1.01 ± 0.017 for the first, 0.9949 ± 0.0067 for the second.

TGGGTTTATG and TGGGTTTGGA are within error of each other in switch fluorescence ratio: 1 ± 0.03 for the first, 1.03 ± 0.049 for the second.

TGGGTTTTGT and TGGTAAACGC are within error of each other in switch fluorescence ratio: 1.01 ± 0.029 for the first, 1.03 ± 0.05 for the second.

TGGTAAAGGG and TGGTAATGGA are within error of each other in switch fluorescence ratio: 0.991 ± 0.034 for the first, 0.958 ± 0.046 for the second.

TGGTAATGGT and TGGTAATTTT are within error of each other in switch fluorescence ratio: 1.03 ± 0.074 for the first, 0.998 ± 0.017 for the second.

TGGTAGAAGT and TGGTAGATGG are within error of each other in switch fluorescence ratio: 0.988 ± 0.022 for the first, 1 ± 0.022 for the second.

TGGTAGGAGG and TGGTAGGGGT are the same in switch fluorescence ratio: 1.002 ± 0.0056 for the first, 1 ± 0.014 for the second.

TGGTAGGTGA and TGGTATAGGC are within error of each other in switch fluorescence ratio: 0.997 ± 0.025 for the first, 1.04 ± 0.027 for the second.

Compared with TGGTATCTTA, TGGTATGGTA is lower in switch fluorescence ratio: 1.026 ± 0.0098 for the first, 0.9969 ± 0.0099 for the second.

Going from TGGTCCACTG to TGGTCGGTAG, the switch fluorescence ratio falls from 1.009 ± 0.0057 to 0.9855 ± 0.0023.

TGGTCTAGGA and TGGTCTTTTC are within error of each other in switch fluorescence ratio: 1.01 ± 0.011 for the first, 0.986 ± 0.02 for the second.

TGGTGAAACC and TGGTGAAAGC are within error of each other in switch fluorescence ratio: 1.013 ± 0.0035 for the first, 0.991 ± 0.022 for the second.

TGGTGATGCA and TGGTGATGCG are within error of each other in switch fluorescence ratio: 1.08 ± 0.11 for the first, 0.998 ± 0.064 for the second.

Going from TGGTGATTGT to TGGTGCATGC, the switch fluorescence ratio falls from 1.02 ± 0.017 to 0.957 ± 0.019.

TGGTGGAAAA and TGGTGGATCT are within error of each other in switch fluorescence ratio: 0.973 ± 0.02 for the first, 0.9904 ± 0.0063 for the second.
